Laboratory results: patent publication US20250206813A1 (NVH MEDICINAL, published 2025)
Each block holds one binder with its values, some of them ahead of it.

Experiments:
[1] = molecular target: T1, PCPE-1 (Procollagen C-proteinase enhancer-1) glycoprotein, human (human, UniProt Q15113 26-449); test: SPR, VHH injected on immobilized PCPE-1
T1 construct: mature; Secreted recombinant protein; also called purified human PCPE-1
T1 sequence (looked up): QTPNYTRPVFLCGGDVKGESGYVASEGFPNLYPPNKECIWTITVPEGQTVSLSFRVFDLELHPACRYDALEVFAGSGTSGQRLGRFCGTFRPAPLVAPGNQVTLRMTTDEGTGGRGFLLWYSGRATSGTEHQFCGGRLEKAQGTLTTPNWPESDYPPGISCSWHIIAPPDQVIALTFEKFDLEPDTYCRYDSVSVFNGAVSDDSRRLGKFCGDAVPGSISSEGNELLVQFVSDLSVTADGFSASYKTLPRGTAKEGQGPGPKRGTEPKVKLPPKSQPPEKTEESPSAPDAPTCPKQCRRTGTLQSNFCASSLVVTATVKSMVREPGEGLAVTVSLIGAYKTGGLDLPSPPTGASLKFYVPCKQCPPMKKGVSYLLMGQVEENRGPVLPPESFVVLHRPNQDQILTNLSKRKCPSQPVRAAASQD

CUB2 domain of PCPE-1 = molecular target: T2, CUB2 domain of PCPE-1 (human, UniProt Q15113 159-273); test: SPR competition: VHH (50 nM) co-injected with the soluble CUB2 domain (250 nM) over immobilized PCPE-1
T2 construct: domain: CUB2
T2 sequence (looked up): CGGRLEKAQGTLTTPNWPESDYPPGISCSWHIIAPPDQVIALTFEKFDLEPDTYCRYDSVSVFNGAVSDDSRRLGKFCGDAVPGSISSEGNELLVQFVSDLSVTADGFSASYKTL

CUB1 domain of PCPE-1 = molecular target: T3, CUB1 domain of PCPE-1 (human, UniProt Q15113 37-149); test: SPR competition: VHH (50 nM) co-injected with the soluble CUB1 domain (250 nM) over immobilized PCPE-1
T3 construct: domain: CUB1
T3 sequence (looked up): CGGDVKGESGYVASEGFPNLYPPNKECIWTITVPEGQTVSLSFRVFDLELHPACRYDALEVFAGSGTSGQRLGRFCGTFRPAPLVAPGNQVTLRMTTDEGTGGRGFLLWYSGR

[2] = molecular target: T4, PCPE-2 (with a 6-his N-terminal tag) (UniProt Q9UKZ9 24-415); test: SPR, biotinylated VHH on streptavidin chip, PCPE-2 injected
T4 construct: not shown: N-terminal 6-His tag
T4 sequence (looked up): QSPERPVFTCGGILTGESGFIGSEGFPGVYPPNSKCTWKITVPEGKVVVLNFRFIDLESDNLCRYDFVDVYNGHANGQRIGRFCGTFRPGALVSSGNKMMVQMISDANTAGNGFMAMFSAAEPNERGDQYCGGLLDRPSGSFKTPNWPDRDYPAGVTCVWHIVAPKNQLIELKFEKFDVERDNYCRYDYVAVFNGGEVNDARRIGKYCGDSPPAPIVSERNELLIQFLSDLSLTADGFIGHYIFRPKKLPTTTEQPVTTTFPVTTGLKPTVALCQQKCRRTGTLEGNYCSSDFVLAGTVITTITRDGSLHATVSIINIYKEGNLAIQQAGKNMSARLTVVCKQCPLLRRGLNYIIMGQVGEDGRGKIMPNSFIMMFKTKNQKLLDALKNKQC
Protocol: (§1) FIG. 2D: VHHs […] is biotinylated and immobilized on a streptavidin chip (813 RU), then increasing concentrations of PCPE-1 (black) or PCPE-2 (grey) are injected.
(§2) FIG. 2E: VHH H4 is biotinylated and immobilized on a streptavidin chip (491 RU), then increasing concentrations of PCPE-1 or PCPE-2 are injected. [0038] D, E: Interactions are modeled (dotted line) using the Langmuir model (Biacore T200 Evaluation software, Cytiva)
(§3) PCPE-2 is a protein in the same family as PCPE-1, with a 43% identical amino acid sequence. It shares certain activities with PCPE-1, but also has very different specific functions. The specificity of nanobody interaction for PCPE-1 versus PCPE-2 was analyzed by SPR. To achieve this, VHH-I5 and VHH-H4 were biotinylated at their C-terminus using sortase, then immobilized on a streptavidin surface. […] The affinity of VHH-I5 and -H4 for PCPE-1 is therefore at least 250 times greater than for PCPE-2.

[3] = molecular target: T1, PCPE-1 (Procollagen C-proteinase …); test: SPR, biotinylated VHH on streptavidin chip; reference PCPE-2
Protocol: as §1, §2, §3

[4] = molecular target: T1, PCPE-1 (Procollagen C-proteinase …); test: SPR, biotinylated VHH on streptavidin chip, PCPE-1 injected, 1:1 binding model
Protocol: as §1, §2, §3

[5] = molecular target: T1, PCPE-1 (Procollagen C-proteinase …); test: SPR competition: PCPE-1 (5 nM) co-injected with VHH on immobilized Mini III; VHH-I5 alone, 5 nM PCPE-1
Protocol: (§4) Surface plasmon resonance (SPR) experiments were carried out on a Biacore T200 (Cytiva). The ligand proteins, in solution in 10 mM HEPES pH 7.4 buffer for PCPE-1 or 10 mM sodium acetate pH 4.5 buffer for mini-procollagen III and streptavidin, are immobilized on CM5 chips by amine coupling. Analytes are diluted in running buffer (10 mM HEPES pH 7.4, 0.15 M NaCl, 5 mM CaCl₂), 0.05% P20) and injected at a flow rate of 30 or 50 μL/min. Competition, epitope binning and kinetics experiments were all carried out at 25° C. Regeneration was achieved by successive injection of 2 M guanidine chloride and 0.5 M EDTA for 30 sec. Sensorgrams were analyzed with Biacore T200 Evaluation v3.2.1 (Cytiva), using the most suitable models. IC50 was determined by non-linear regression using GraphPad Prism (v8.2.1).
(§5) What is more, their antagonistic effects are additive, and co-injection of a mixture of VHH-I5 and VHH-H4 with PCPE-1 virtually eliminates its interaction with Mini III.

[6] = molecular target: T1, PCPE-1 (Procollagen C-proteinase …); test: SPR competition: PCPE-1 (5 nM) co-injected with VHH on immobilized Mini III; VHH-H4 alone, 5 nM PCPE-1
Protocol: as §4, §5

B3: VHH-H1 (VHH)
VHH: EVQLQASGGGFVQPGGSLRLSCAASGRTWSFYAMGWFRQAPGKEREFVSAISWNGGGEHYYADSVKGRFTISRDNSKNTVYLQMNSLRAEDTATYYCAHMEFSQSDYIISKWIYWGQGTQVTVSS
notes: Synthetic nanobody (hsd2ab library), pET29b(+) vector, pelB signal; not shown: C-terminal 6-His tag
Kd [1]: > 250 nM

B5: VHH-H7 (VHH)
VHH: EVQLQASGGGFVQPGGSLRLSCAASGYYFRGEDMGWFRQAPGKEREFVSAISDDSTATIYYADSVKGRFTISRDNSKNTVYLQMNSLRAEDTATYYCAPGWYIYLDWSESGSAYWGQGTQVTVSS
notes: as for B3
Kd [1]: 152 nM

B11: VHH-H3 (VHH)
VHH: EVQLQASGGGFVQPGGSLRLSCAASGATYWFSSMGWFRQAPGKEREFVSAISYWFDDIEYYADSVKGRFTISRDNSKNTVYLQMNSLRAEDTATYYCAMWNEQTGEEYWGQGTQVTVSS
notes: as for B3
Kd [1]: > 250 nM

B12: VHH-H4 (VHH)
VHH: EVQLQASGGGFVQPGGSLRLSCAASGFTSEISNMGWFRQAPGKEREFVSAISGTHTTQTYYADSVKGRFTISRDNSKNTVYLQMNSLRAEDTATYYCAAEQDMSDLWLGSYWGQGTQVTVSS
notes: Synthetic nanobody (hsd2ab library), pET29b(+) vector, pelB signal; also called nanobody-H4; not shown: C-terminal 6-His tag
Kd [1]: 30 nM | IC50 [6]: ~45 nM | binding result (CUB2 domain of PCPE-1): no binding (tested: 250 nM)

B13: VHH-H4 biotinylated at its C-terminus using sortase (VHH)
VHH: B12 VHH
modifications: C-terminal biotin (GGGK-biotin ligated by Sortase A at the LPETG site)
notes: pHEN vector with LPETG and 6-His; Captured on streptavidin; also called biotinylated VHH-H4; biotinylated H4 nanobody; not shown: GGGK-biotin ligated by Sortase A in place of the 6-His label
Kd [2]: > 1000 nM | fold affinity for PCPE-1 over PCPE-2 [3]: ≥ 250 fold | Kd [4]: 3.88 nM | koff [4]: 0.0195 s⁻¹ | kon [4]: 5.04e+06 M⁻¹ s⁻¹

B14: VHH-H6 (VHH)
VHH: EVQLQASGGGFVQPGGSLRLSCAASGFTSARYNMGWFRQAPGKEREFVSAISRHTDRQTYYADSVKGRFTISRDNSKNTVYLQMNSLRAEDTATYYCAVGMMPKQKQYWGQGTQVTVSS
notes: as for B3
Kd [1]: > 250 nM

B15: VHH-H2 (VHH)
VHH: EVQLQASGGGFVQPGGSLRLSCAASGSTSRDEGMGWFRQAPGKEREFVSAISRDHGWREYYADSVKGRFTISRDNSKNTVYLQMNSLRAEDTATYYCAPVIIDTMEVIPLYWGQGTQVTVSS
notes: as for B3
Kd [1]: > 250 nM

B17: VHH-H8 (VHH)
VHH: EVQLQASGGGFVQPGGSLRLSCAASGYTSDLTVMGWFRQAPGKEREFVSAISSHFGPPHYYADSVKGRFTISRDNSKNTVYLQMNSLRAEDTATYYCAMRERRHSWWYWGQGTQVTVSS
notes: as for B3
Kd [1]: > 250 nM

Continued, values first:

Kd [1]: 18 nM | binding result (CUB2 domain of PCPE-1): no binding (tested: 250 nM)
B1: VHH-H10 (VHH)
VHH: EVQLQASGGGFVQPGGSLRLSCAASGYGWWIYEMGWFRQAPGKEREFVSAISWADGTRTYYADSVKGRFTISRDNSKNTVYLQMNSLRAEDTATYYCAIYILEGTQGVPIYWGQGTQVTVSS
notes: as for B3

Kd [1]: 16 nM | binding result (CUB1 domain of PCPE-1): no binding (tested: 250 nM)
B2: VHH-I3 (VHH)
VHH: QVQLVESGGGLVEPGGSLRLSCAVSGSTFSMNVMGWYRQAPGKHREWVGSIGTGGGTNYPDSVKGRFTISRDNVKKTVYLQMNSLKPEDTAVYYCNKIPHNWGWGQGTQVTVSS
notes: Llama nanobody, pHEN6 vector, pelB signal, produced in E. coli periplasm; also called nanobody I3; 13; not shown: C-terminal 6-His tag

Kd [1]: 154 nM
B4: VHH-I2 (VHH)
VHH: QVQLVESGGGWVQPGGSLRLSCAASGITFSTKTMGWYRQRPGKRREWIGSISPTGFTNYADAVKGRVTISRDNGENTVYLQMNSLKPEDTAVYFCNGVPPVIIDGQSVAYWGQGTQVTVSS
notes: Llama nanobody, pHEN6 vector, pelB signal, produced in E. coli periplasm; also called nanobody I2; not shown: C-terminal 6-His tag

Kd [1]: > 250 nM
B6: VHH-I4 (VHH)
VHH: QVQLVESGGGSVAAGESLTLSCRMSGSTSSIQAMGWYRRAPGNQREWLATISPRGNTNYADSVKGRFTISRDNAKNTVYLQMNSLKPADTAVYYCNTVPSGGIPWGQGTQVTVSS
notes: Llama nanobody, pHEN6 vector, pelB signal, produced in E. coli periplasm; also called nanobody I4; not shown: C-terminal 6-His tag

Kd [2]: > 1000 nM | fold affinity for PCPE-1 over PCPE-2 [3]: ≥ 250 fold | Kd [4]: 1.45 nM | koff [4]: 0.00136 s⁻¹ | kon [4]: 937000 M⁻¹ s⁻¹
B7: VHH-I5 biotinylated at its C-terminus using sortase (VHH)
VHH: QVQLVESGGGLVQPGGFLRLLCTASGNIFSSNTMGWYRRAPGKQREWVASISKGGSTNYADSVKDRFTISRSITKNTVYLQMVNLKPEDTAVYYCNPVPDSDNYASGQGTQVTVSS
modifications: C-terminal biotin (GGGK-biotin ligated by Sortase A at the LPETG site)
notes: pHEN vector with LPETG and 6-His; Captured on streptavidin; also called biotinylated VHH-I5; not shown: GGGK-biotin ligated by Sortase A in place of the 6-His label

Kd [1]: 7.2 nM | IC50 [5]: ~24 nM
B8: VHH-I5 (VHH)
VHH: B7 VHH
notes: Llama nanobody, pHEN6 vector, pelB signal, produced in E. coli periplasm; also called nanobody-I5; 15; not shown: C-terminal 6-His tag

Kd [1]: 161 nM
B9: VHH-I11 (VHH)
VHH: QVQLVESGGGTVQAGGSLRLSCTASGRGRNAMGWYRQVPGGKRELVASINRGGTTDYTDSVKDRFTISRDSAKNTVYLQMDSLQPEDTAVYYCNAESTVIPGHIYDYWGRGTQVTVSS
notes: Llama nanobody, pHEN6 vector, pelB signal, produced in E. coli periplasm; also called nanobody I11; not shown: C-terminal 6-His tag

Kd [1]: > 250 nM
B10: VHH-H9 (VHH)
VHH: EVQLQASGGGFVQPGGSLRLSCAASGDTFNLTTMGWFRQAPGKEREFVSAISSSNTHIAYYADSVKGRFTISRDNSKNTVYLQMNSLRAEDTATYYCAYTYYGKNGKGMVYWGQGTQVTVSS
notes: as for B3

Kd [1]: 12.8 nM
B16: VHH-I7 (VHH)
VHH: QVQLVESGGGLVPPGGSLKLSCTASGSIFSSNVMGWYRRAPGKQREWVASISRGGGTNYPDSVKGRFTVSRDIAKNTVYLQISSLKPEDTAVYYCNPIPYSGDYVSGQGTQVTVSS
notes: Llama nanobody, pHEN6 vector, pelB signal, produced in E. coli periplasm; also called nanobody I7; 17; not shown: C-terminal 6-His tag
